Our source for the Mean EC50 (nM), proliferation of GH-R4 cells and Mean EC50 (ng/ml), proliferation of GH-R4 cells values is patent publication US7754855.

In this test the target is rabbit GH receptor (rabbit) (UniProt P19941). As to the kind of experiment: cell-based or functional assay.
UniProt P19941, sequence (P19941 19-638): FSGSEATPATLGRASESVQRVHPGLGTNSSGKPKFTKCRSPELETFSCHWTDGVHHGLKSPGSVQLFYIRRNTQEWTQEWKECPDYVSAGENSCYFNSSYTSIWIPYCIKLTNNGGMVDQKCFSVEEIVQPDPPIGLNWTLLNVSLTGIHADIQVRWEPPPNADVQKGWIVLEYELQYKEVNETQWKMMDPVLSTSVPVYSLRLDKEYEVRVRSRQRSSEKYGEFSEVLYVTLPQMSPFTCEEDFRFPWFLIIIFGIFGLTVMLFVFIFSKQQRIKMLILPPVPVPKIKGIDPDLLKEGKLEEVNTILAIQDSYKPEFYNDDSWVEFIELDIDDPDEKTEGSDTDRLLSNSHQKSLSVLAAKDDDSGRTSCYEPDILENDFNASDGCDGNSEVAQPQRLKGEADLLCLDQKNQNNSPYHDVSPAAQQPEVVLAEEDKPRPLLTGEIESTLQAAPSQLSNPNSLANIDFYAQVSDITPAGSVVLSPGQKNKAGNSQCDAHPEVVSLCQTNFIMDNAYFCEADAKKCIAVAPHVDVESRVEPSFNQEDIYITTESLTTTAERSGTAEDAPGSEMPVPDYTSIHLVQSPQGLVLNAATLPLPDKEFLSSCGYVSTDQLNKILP

“human pituitary GH standard (from UniProt P01241 27-217) (ligand)” gave a Mean EC50 (nM), proliferation of GH-R4 cells of 0.036 nM and a Mean EC50 (ng/ml), proliferation of GH-R4 cells of 0.8 ng/mL.
